From US20080274905A1 (TRUSTEES OF COLUMBIA UNIVERSITY IN THE CITY OF NEW YORK, published 2008)

Key:
[1] = biological target: the molecule itself; assay: two-colour quantum dot labeling of Rdh54 complexes on DNA curtains, TIRFM colocalisation (self-association)
[2] = biological target: the molecule itself; assay: cryo-electron microscopy of fluorescent Rad51 (self-association into rings)
Text: The biochemically active form of Rad51 and related recombinases is an extended helical filament bound to DNA (P8, P33). Cyro-electron microscopy was used to determine whether the fluorescently tagged version of Rad51 formed structures consistent with the known forms of the wild-type protein. First, fluorescent Rad51 was mixed with double-stranded, linearized φX174 in the presence of ATP. The reaction mixes were then applied to a carbon-coated grid, flash frozen in liquid ethane, and visualized with cryo-EM (P9). […] In addition, the protein that was not bound to the DNA molecules was present as a ring-like structure, as previously reported (P16). Rad511 and several closely related proteins, are known to form ring-like structures under various reaction conditions and it is thought that these rings contain from 6-8 monomers of protein (P13-P15, P34, P35).

B1: Rdh54 (Rad homolog 54), yeast Snf2-related homologous recombination factor (enzyme, UniProt P38086 1-958, looked up)
chain: MAVISVKPRRREKILQEVKNSSVYQTVFDSGTTQMQIPKYENKPFKPPRRVGSNKYTQLKPTATAVTTAPISKAKVTVNLKRSISAGPTLNLAKKPNNLSSNENTRYFTIMYRKPTTKKHKTWSGDGYATLKASSDKLCFYNEAGKFLGSSMLPSDSDSLFETLFKAGSNEVQLDYELKENAEIRSAKEALSQNMGNPSPPTTSTTETVPSTKNDGGKYQMPLSQLFSLNTVKRFKSVTKQTNEHMTTVPKTSQNSKAKKYYPVFDVNKIDNPIVMNKNAAAEVDVIVDPLLGKFLRPHQREGVKFMYDCLMGLARPTIENPDIDCTTKSLVLENDSDISGCLLADDMGLGKTLMSITLIWTLIRQTPFASKVSCSQSGIPLTGLCKKILVVCPVTLIGNWKREFGKWLNLSRIGVLTLSSRNSPDMDKMAVRNFLKVQRTYQVLIIGYEKLLSVSEELEKNKHLIDMLVCDEGHRLKNGASKILNTLKSLDIRRKLLLTGTPIQNDLNEFFTIIDFINPGILGSFASFKRRFIIPITRARDTANRYNEELLEKGEERSKEMIEITKRFILRRTNAILEKYLPPKTDIILFCKPYSQQILAFKDILQGARLDFGQLTFSSSLGLITLLKKVCNSPGLVGSDPYYKSHIKDTQSQDSYSRSLNSGKLKVLMTLLEGIRKGTKEKVVVVSNYTQTLDIIENLMNMAGMSHCRLDGSIPAKQRDSIVTSFNRNPAIFGFLLSAKSGGVGLNLVGASRLILFDNDWNPSVDLQAMSRIHRDGQKKPCFIYRLVTTGCIDEKILQRQLMKNSLSQKFLGDSEMRNKESSNDDLFNKEDLKDLFSVHTDTKSNTHDLICSCDGLGEEIEYPETNQQQNTVELRKRSTTTWTSALDLQKKMNEAATNDDAKKSQYIRQCLVHYKHIDPARQDELFDEVITDSFTELKDSITFAFVKPGEICLREQ
notes: also called Tid1
[1]
  binding result: binds

B2: fluorescently tagged human Rad51 (A11C Rad51 labeled with Alexa Fluor 555-maleimide) (enzyme, UniProt Q06609 1-339, looked up)
chain: MAMQMQLEANCDTSVEEESFGPQPISRLEQSGINANDVKKLEEAGFHTVEAVAYAPKKELINIKGISEAKADKILAEAAKLVPMGFTTATEFHQRRSEIIQITTGSKELDKLLQGGIETGSITEMFGEFRTGKTQICHTLAVTCQLPIDRGGGEGKAMYIDTEGTFRPERLLAVAERYGLSGSDVLDNVAYARAFNTDHQTQLLYQASAMMVESRYALLIVDSATALYRTDYSGRGELSARQMHLARFLRMLLRLADEFGVAVVITNQVVAQVDGAAMFAADPKKPIGGNIIAHASTTRLYLRKGRGETRISKIYDSPSLPEAEAMFAINADGVGDAKD
modifications: Alexa Fluor 555-maleimide on Cys 11 (A11C)
notes: also called fluorescent Rad51; Alexa Fluor 555-Rad51
[2]
  binding result: binds
